Measured values taken from the RNAGym collection of RNA variant scans (doi:10.1101/gr.219683.116).

B1: mRNA-splicing (parent)
chain: AGUUGCUGCUGGGAGCUCCAGCACAGUGAAAUGGACAGAAGGGCAGAGCAA

Variants of: B1
Assay: exon inclusion enrichment index; higher = more inclusion; WT1 exon 5 minigene, HEK293

Variant | exon inclusion enrichment index
G5U G8U C9U U27C G28C | 0.257
G5U G8U C9U U27C G28A | 0.135
G5U G8U C9U G34A A35U | 0.0163
G5U G8U C9U G34A A35G | 0.0238
G5U G8U C9U G34A A35C | 0.0912
G5U G8U C9U G33A | 0.00649
G5U G8U C9U G33C | 0.254
G5U G8U C9U G33U | 0.0674
G5U G8U C9U G28U A29U | 0.0195
G5U G8U C9U G28U A29G | 0.118
G5U G8U C9U G28U A29C | 0.0643
G5U G8U C9U U17A C18U | 0.0627
G5U G8U C9U U17A C18G | 0.0888
G5U G8U C9U U17A C18A | 0.0626
G5U G8U C9U G46A | 0.192
G5U G8U C9U G46U | 0.0708
G5U G8U C9U G46C | 0.148
G5U G8U C9U G46C A47G | 0.306
G5U G8U C9U G46C A47U | 0.15
G5U G8U C9U G46C A47C | 0.234
G5U G8U C9U G33U G34C | 0.0164
G5U G8U C9U G33U G34A | 0.00858
G5U G8U C9U G33U G34U | 0.00702
G5U G8U C9U G15U C16U | 0.0287

Variant | exon inclusion enrichment index
G5U G8U C9U G15U C16A | 0.0344
G5U G8U C9U G15U C16G | 0.064
G5U G8U C9U G41C G42A | 0.229
G5U G8U C9U G41C G42U | 0.643
G5U G8U C9U G41C G42C | 0.753
G5U G8U C9U G42C G43U | 0.515
G5U G8U C9U G42C G43A | 0.494
G5U G8U C9U G42C G43C | 0.708
G5U G8U C9U G21U | 0.078
G5U G8U C9U G21A | 0.0718
G5U G8U C9U G21C | 0.162
G5U G8U C9U U10A G11C | 0.155
G5U G8U C9U U10A G11A | 0.0324
G5U G8U C9U U10A G11U | 0.0867
G5U G8U C9U G28A | 0.0119
G5U G8U C9U G28U | 0.0111
G5U G8U C9U G28C | 0.0778
G5U G8U C9U G15C C16G | 0.179
G5U G8U C9U G15C C16A | 0.0947
G5U G8U C9U G15C C16U | 0.0902
G5U G8U C9U G46U A47C | 0.55
G5U G8U C9U G46U A47G | 0.0739
G5U G8U C9U G46U A47U | 0.164
G5U G8U C9U U17C C18A | 0.0484

Variant | exon inclusion enrichment index
G5U G8U C9U U17C C18G | 0.151
G5U G8U C9U U17C C18U | 0.0755
G5U G8U C9U G34C A35G | 0.0652
G5U G8U C9U G34C A35U | 0.00745
G5U G8U C9U G34C A35C | 0.0104
G5U G8U C9U G43A | 0.671
G5U G8U C9U G43C | 0.199
G5U G8U C9U G43U | 0.16
G5U G8U C9U G41U G42C | 0.47
G5U G8U C9U G41U G42U | 0.11
G5U G8U C9U G41U G42A | 0.0453
G5U G8U C9U U10C G11A | 0.133
G5U G8U C9U U10C G11U | 0.279
G5U G8U C9U U10C G11C | 0.932
G5U G8U C9U G38C A39G | 0.136
G5U G8U C9U G38C A39U | 0.00329
G5U G8U C9U G38C A39C | 0.152
G5U G8U C9U G21C C22G | 0.384
G5U G8U C9U G21C C22U | 0.151
G5U G8U C9U G21C C22A | 0.108
G5U G8U C9U G21U C22A | 0.0438
G5U G8U C9U G21U C22U | 0.0182
G5U G8U C9U G21U C22G | 0.103
G5U G8U C9U U17G C18U | 0.0929

Variant | exon inclusion enrichment index
G5U G8U C9U U17G C18G | 0.13
G5U G8U C9U U17G C18A | 0.124
G5U G8U C9U G43C C44A | 0.722
G5U G8U C9U G43C C44G | 1.3
G5U G8U C9U G43C C44U | 0.0876
G5U G8U C9U G42A G43U | 1.46
G5U G8U C9U G42A G43C | 1.72
G5U G8U C9U G42A G43A | 1.46
G5U G8U C9U G34U A35C | 0.0387
G5U G8U C9U G34U A35G | 0.0289
G5U G8U C9U G34U A35U | 0.0186
G5U G8U C9U U10G | 0.095
G5U G8U C9U U10A | 0.00828
G5U G8U C9U U10C | 0.561
G5U G8U C9U G28A A29U | 0.0186
G5U G8U C9U G28A A29G | 0.0263
G5U G8U C9U G28A A29C | 0.0709
G5U G8U C9U G26U | 0.161
G5U G8U C9U G26A | 0.201
G5U G8U C9U G26C | 0.177
G5U G8U C9U G41A G42U | 0.115
G5U G8U C9U G41A G42A | 0.107
G5U G8U C9U G41A G42C | 0.348
G5U G8U C9U G42A | 0.667

Variant | exon inclusion enrichment index
G5U G8U C9U G42C | 0.786
G5U G8U C9U G42U | 0.227
G5U G8U C9U G41C | 0.706
G5U G8U C9U G41U | 0.17
G5U G8U C9U G41A | 0.0762
G5U G8U C9U U17G | 0.13
G5U G8U C9U U17A | 0.136
G5U G8U C9U U17C | 0.0866
G5U G8U C9U G48A | 0.314
G5U G8U C9U G48U | 0.22
G5U G8U C9U G48C | 0.251
G5U G8U C9U G33C G34U | 0.0844
G5U G8U C9U G33C G34A | 0.0575
G5U G8U C9U G33C G34C | 0.0648
G5U G8U C9U G26C U27C | 0.621
G5U G8U C9U G26C U27A | 0.135
G5U G8U C9U G26C U27G | 0.648
G5U G8U C9U G15A C16A | 0.0496
G5U G8U C9U G15A C16G | 0.043
G5U G8U C9U G15A C16U | 0.0203
G5U G8U C9U G13U A14U | 0.0249
G5U G8U C9U G42U G43A | 0.451
G5U G8U C9U G42U G43U | 0.409
G5U G8U C9U G42U G43C | 0.0971

Variant | exon inclusion enrichment index
G5U G8U C9U G33A G34U | 0.0046
G5U G8U C9U G33A G34A | 0.0153
G5U G8U C9U G33A G34C | 0.0112
G5U G8U C9U U27A | 0.208
G5U G8U C9U U27C | 0.478
G5U G8U C9U U27A G28C | 0.109
G5U G8U C9U U27A G28A | 0.173
G5U G8U C9U U27A G28U | 0.0328
G5U G8U C9U G15U | 0.107
G5U G8U C9U G15C | 0.196
G5U G8U C9U G15A | 0.0439
G5U G8U C9U G43U C44A | 0.0152
G5U G8U C9U G43U C44U | 0.0283
G5U G8U C9U G43U C44G | 0.112
G5U G8U C9U G38U A39C | 0.088
G5U G8U C9U G38U A39G | 0.0405
G5U G8U C9U G38U A39U | 0.00101
G5U G8U C9U G26U U27C | 0.729
G5U G8U C9U G26U U27A | 0.0473
G5U G8U C9U G26U U27G | 0.458
G5U G8U C9U G26A U27G | 0.338
G5U G8U C9U G26A U27C | 0.838
G5U G8U C9U G26A U27A | 0.24
G5U G8U C9U G46A A47C | 0.466

Variant | exon inclusion enrichment index
G5U G8U C9U G46A A47U | 0.164
G5U G8U C9U G46A A47G | 0.0611
G5U G8U C9U U10G G11A | 0.429
G5U G8U C9U U10G G11U | 0.498
G5U G8U C9U U10G G11C | 0.742
G5U G8U C9U G38U | 0.0205
G5U G8U C9U G38A | 0.0418
G5U G8U C9U G38C | 0.0741
G5U G8U C9U G28C A29C | 0.115
G5U G8U C9U G28C A29G | 0.342
G5U G8U C9U G28C A29U | 0.0407
G5U G8U C9U G38A A39U | 0.00274
G5U G8U C9U G38A A39C | 0.0724
G5U G8U C9U G38A A39G | 0.151
G5U G8U C9U G21A C22G | 0.143
G5U G8U C9U G21A C22U | 0.0464
G5U G8U C9U G21A C22A | 0.0256
G5U G8U C9U G43A C44U | 0.177
G5U G8U C9U G43A C44G | 0.749
G5U G8U C9U G43A C44A | 0.667
G5U G8U C9U G34C | 0.0201
G5U G8U C9U G34U | 0.0349
G5U G8U C9U G34A | 0.0562
